Oligomerisation data for one protein are collected here from paper PMC11065870.

The nature of series [1]: native MS, super-dimer vs heterodimer abundance. Particulars: glycan changed form; control: fully glycosylated WT.
Series [2] in a line: mass photometry in GDN, super-dimer/heterodimer ratio. Particulars: glycan changed form; control: fully sialylated WT.

B1: 4F2hc (4F2 cell-surface antigen heavy chain): neuraminidase (desialylated) (protein)
parent chain: MELQPPEASIAVVSIPRQLPGSHSEAGVQGLSAGDDSELGSHCVAQTGLELLASGDPLPSASQNAEMIETGSDCVTQAGLQLLASSDPPALASKNAEVTGTMSQDTEVDMKEVELNELEPEKQPMNAASGAAMSLAGAEKNGLVKIKVAEDEAEAAAAAKFTGLSKEELLKVAGSPGWVRTRWALLLLFWLGWLGMLAGAVVIIVRAPRCRELPAQKWWHTGALYRIGDLQAFQGHGAGNLAGLKGRLDYLSSLKVKGLVLGPIHKNQKDDVAQTDLLQIDPNFGSKEDFDSLLQSAKKKSIRVILDLTPNYRGENSWFSTQVDTVATKVKDALEFWLQAGVDGFQVRDIENLKDASSFLAEWQNITKGFSEDRLLIAGTNSSDLQQILSLLESNKDLLLTSSYLSDSGSTGEHTKSLVTQYLNATGNRWCSWSLSQARLLTSFLPAQLLRLYQLMLFTLPGTPVFSYGDEIGLDAAALPGQPMEAPVMLWDESSFPDIPGAVSANMTVKGQSEDPGSLLSLFRRLSDQRSKERSLLHGDFHAFSAGPGLFSYIRHWDQNERFLVVLNFGDVGLSAGLQASDLPASASLPAKADLLLSTQPGREEGSPLELERLKLEPHEGLLLRFPYAA
With B1, the oligomerisation entry in series [1] and in series [2] was “decreases” each time.
